Patent US20070160658A1, “Delivery system for diagnostic and therapeutic agents” (The Penn State Research Foundation, priority 2005, published 2007)

Target: T1, IL-13Rα2 (Homo sapiens, UniProt Q14627)
T1 sequence (Q14627 27-380): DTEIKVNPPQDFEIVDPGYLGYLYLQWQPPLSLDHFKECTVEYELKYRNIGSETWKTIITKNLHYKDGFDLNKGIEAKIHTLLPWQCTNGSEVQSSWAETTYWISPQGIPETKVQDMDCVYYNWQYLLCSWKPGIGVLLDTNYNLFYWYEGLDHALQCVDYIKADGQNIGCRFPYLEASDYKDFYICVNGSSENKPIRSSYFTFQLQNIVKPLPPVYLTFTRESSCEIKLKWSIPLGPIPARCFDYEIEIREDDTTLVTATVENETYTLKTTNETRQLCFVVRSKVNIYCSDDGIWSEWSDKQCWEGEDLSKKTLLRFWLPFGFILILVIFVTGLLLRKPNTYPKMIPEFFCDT
Assay: titered cytotoxicity neutralization assay against IL13-PE38QQR cytotoxin
Format: cell-based
Conditions: protein 100 ng/ml; cytotoxin IL13-PE38QQR fixed at 10 ng/ml
Method: Additionally, position K105 of this region of IL-13 is mutated into a variety of amino acids and the mutants' cytotoxic neutralization potential and binding affinity towards IL-13Rα2 is determined. […] In this titered cytotoxicity neutralization experiment, higher neutralization efficiency against the IL13-PE38QQR cytotoxin, for the mutant IL13.K105R is observed (Madhankumar A. B., Mintz, A., and Debinski, W. (2004) Neoplasia (New York) 6, 15-22). IL13.K105R is able to neutralize the cytotoxicity to 99% at 100 ng/ml concentration when compared with its blocking efficiency at 1000 ng/ml concentration. However, the wild type IL-13 and the mutant IL13.K106R and IL13.R109K have only 86.5%, 86.7% and 80.7% of the cytotoxicity neutralization efficiency with respect to their neutralization efficiency at 1000 ng/ml concentration. […] The high affinity mutant IL13.K105R is used as a ligand to conjugate to liposomes in order to better target the glioma associated IL-13Rα2 receptor.

| Substance | cytotoxicity neutralization efficiency with respect to neutralization efficiency at 1000 ng/ml |
| --- | --- |
| wild type IL-13: human cytokine interleukin-13, wild type | 86.5% |
| IL13.K106R: mutant of IL-13 at position 106 | 86.7% |
